{
  "source": "paper PMC4216189",
  "about": "(Biochemistry, 2014)",
  "binders": {"B1": {"name": "[8,8,8-2H3]-octanoyl-H protein of Escherichia coli (natural protein, UniProt P0A6T9 1-129, looked up)", "chain": "MSNVPAELKYSKEHEWLRKEADGTYTVGITEHAQELLGDMVFVDLPEVGATVSAGDDCAVAESVKAASDIYAPVSGEIVAVNDALSDSPELVNSEPYAGGWIFKIKASDESELESLLDATAYEALLEDE", "modifications": "N6-([8,8,8-2H3]-octanoyl)-lysine (position not given)"}, "B2": {"name": "octanoyl-H protein of Escherichia coli (unlabeled) (natural protein, UniProt P0A6T9 1-129, looked up)", "chain": "B1 chain", "modifications": "N6-octanoyl-lysine (position not given)"}},
  "molecular_target": "T1, Escherichia coli lipoyl synthase, hexahistidine-tagged (Escherichia coli, UniProt P60716 1-321)",
  "T1 sequence (looked up)": "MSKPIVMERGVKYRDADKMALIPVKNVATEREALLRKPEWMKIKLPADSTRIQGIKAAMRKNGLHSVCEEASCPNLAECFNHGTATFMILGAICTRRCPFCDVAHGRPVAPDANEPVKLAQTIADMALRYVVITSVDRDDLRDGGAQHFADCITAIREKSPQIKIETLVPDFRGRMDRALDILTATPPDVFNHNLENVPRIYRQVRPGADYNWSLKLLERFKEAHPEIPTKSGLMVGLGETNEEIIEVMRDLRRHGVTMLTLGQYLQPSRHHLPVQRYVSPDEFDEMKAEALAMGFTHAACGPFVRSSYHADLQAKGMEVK",
  "assay": "co-elution on anion-exchange chromatography",
  "data": [
    {"binder": "B1", "values": [
      {"measurement": "binding result", "value": "binds"}
    ]},
    {"binder": "B2", "values": [
      {"measurement": "binding result", "value": "binds"}
    ]}
  ]
}
